Measured values from IntAct's records for PubMed 19494828.

B1: Caspase-9 (Homo sapiens), P55211 (parent)
chain: MDEADRRLLRRCRLRLVEELQVDQLWDALLSRELFRPHMIEDIQRAGSGSRRDQARQLIIDLETRGSQALPLFISCLEDTGQDMLASFLRTNRQAAKLSKPTLENLTPVVLRPEIRKPEVLRPETPRPVDIGSGGFGDVGALESLRGNADLAYILSMEPCGHCLIINNVNFCRESGLRTRTGSNIDCEKLRRRFSSLHFMVEVKGDLTAKKMVLALLELAQQDHGALDCCVVVILSHGCQASHLQFPGAVYGTDGCPVSVEKIVNIFNGTSCPSLGGKPKLFFIQACGGEQKDHGFEVASTSPEDESPGSNPEPDATPFQEGLRTFDQLDAISSLPTPSDIFVSYSTFPGFVSWRDPKSGSWYVETLDDIFEQWAHSEDLQSLLLRVANAVSVKGIYKQMPGCFNFLRKKLFFKTS

Variants of: B1
Details: with apaf_human APAF1, O14727
apaf_human APAF1, O14727, sequence (O14727 whole entry): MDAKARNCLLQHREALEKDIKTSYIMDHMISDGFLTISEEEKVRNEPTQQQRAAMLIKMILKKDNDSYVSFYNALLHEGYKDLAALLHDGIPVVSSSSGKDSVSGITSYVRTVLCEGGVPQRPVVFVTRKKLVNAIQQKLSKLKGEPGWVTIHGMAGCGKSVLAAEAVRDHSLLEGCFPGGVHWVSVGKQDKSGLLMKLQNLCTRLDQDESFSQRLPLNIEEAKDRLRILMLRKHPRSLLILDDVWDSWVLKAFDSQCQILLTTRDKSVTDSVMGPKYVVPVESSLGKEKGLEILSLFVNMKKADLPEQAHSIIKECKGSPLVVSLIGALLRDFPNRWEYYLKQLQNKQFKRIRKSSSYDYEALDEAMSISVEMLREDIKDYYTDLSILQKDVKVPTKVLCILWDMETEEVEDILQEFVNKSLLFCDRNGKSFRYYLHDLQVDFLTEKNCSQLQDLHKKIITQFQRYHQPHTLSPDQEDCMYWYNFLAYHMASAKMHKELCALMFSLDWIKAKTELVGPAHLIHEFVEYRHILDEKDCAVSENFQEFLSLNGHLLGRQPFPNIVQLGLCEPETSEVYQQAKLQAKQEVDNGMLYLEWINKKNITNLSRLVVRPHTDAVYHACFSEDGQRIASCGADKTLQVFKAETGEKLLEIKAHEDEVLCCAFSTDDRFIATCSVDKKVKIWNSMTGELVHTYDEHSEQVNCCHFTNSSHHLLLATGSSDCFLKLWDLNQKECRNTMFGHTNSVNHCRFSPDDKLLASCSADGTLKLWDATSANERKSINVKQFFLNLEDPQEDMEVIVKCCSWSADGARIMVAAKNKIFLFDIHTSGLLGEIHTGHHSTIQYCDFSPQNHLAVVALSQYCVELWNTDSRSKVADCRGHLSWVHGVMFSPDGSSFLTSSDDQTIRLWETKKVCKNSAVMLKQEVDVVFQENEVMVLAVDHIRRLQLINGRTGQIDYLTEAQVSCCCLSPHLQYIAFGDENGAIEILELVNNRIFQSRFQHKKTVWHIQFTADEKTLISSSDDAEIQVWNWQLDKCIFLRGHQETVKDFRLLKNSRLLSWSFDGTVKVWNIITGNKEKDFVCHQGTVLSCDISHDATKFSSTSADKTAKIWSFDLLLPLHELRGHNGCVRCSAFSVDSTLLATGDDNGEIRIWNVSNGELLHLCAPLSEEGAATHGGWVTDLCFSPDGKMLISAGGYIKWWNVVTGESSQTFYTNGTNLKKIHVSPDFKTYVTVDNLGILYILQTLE

Row | Variant | effect of a mutation on the interaction
1 | R56A | disrupting interaction
